The target in assay [1] is HML2 CA^rec (consensus HML2 capsid protein, P1-Q246) (human endogenous retrovirus HML2 (HERV-K), consensus). The experiment in a line: cryo-EM structure; single-particle reconstruction of particles assembled in vitro at 1.4 M NaCl, 10 mg/mL, 4 °C, 1 h; T = 1, D5, D6 and T = 3 shells.
Assay [2] deals with HML2 CA^rec C-terminal domain (CA^rec-CTD, P156-Q246) (human endogenous retrovirus HML2 (HERV-K), consensus). The assay is described as follows: AUC; sedimentation equilibrium, 20 mM Tris-HCl pH 8, 150 mM NaCl, 0.5 mM TCEP; 50-200 µM protein, three speeds; global fit to a monomer-dimer equilibrium (monomer to dimer); MSTAR analysis at 200 µM.
Assay [3] shares this target. The assay is described as follows: solution NMR structure (inter-molecular filtered NOEs); 298 K, 20 mM Tris-HCl, 50 mM NaCl, 0.5 mM TCEP, pH 7.0; asymmetrically labelled dimer from equimolar unlabelled and 13C/15N-labelled CA^rec-CTD, 2 mM total protein.

Several values for one entry are separate records, joined by “and”; a condition that tells them apart may be missing. Equal values may be shown once.

In the case of “HML2 CA^rec (consensus HML2 capsid protein, P1-Q246) (natural protein)”, in assay [1], the stoichiometry N is 5 and 6.
Regarding “HML2 CA^rec C-terminal domain (CA^rec-CTD, P156-Q246) (domain or fragment)”, in assay [2], the Ka was 3600 M⁻¹. Further, the stoichiometry N in assay [3] is 2.

The values above are taken from publication PMC6925226.
